Measured values published in IntAct's records for PubMed 23085078.

B1: mRNA-decapping enzyme 1A (Homo sapiens), Q9NPI6 (parent)
chain: MEALSRAGQEMSLAALKQHDPYITSIADLTGQVALYTFCPKANQWEKTDIEGTLFVYRRSASPYHGFTIVNRLNMHNLVEPVNKDLEFQLHEPFLLYRNASLSIYSIWFYDKNDCHRIAKLMADVVEEETRRSQQAARDKQSPSQANGCSDHRPIDILEMLSRAKDEYERNQMGDSNISSPGLQPSTQLSNLGSTETLEEMPSGSQDKSAPSGHKHLTVEELFGTSLPKEQPAVVGLDSEEMERLPGDASQKEPNSFLPFPFEQLGGAPQSETLGVPSAAHHSVQPEITTPVLITPASITQSNEKHAPTYTIPLSPVLSPTLPAEAPTAQVPPSLPRNSTMMQAVKTTPRQRSPLLNQPVPELSHASLIANQSPFRAPLNVTNTAGTSLPSVDLLQKLRLTPQHDQIQTQPLGKGAMVASFSPAAGQLATPESFIEPPSKTAAARVAASASLSNMVLAPLQSMQQNQDPEVFVQPKVLSSAIPVAGAPLVTATTTAVSSVLLAPSVFQQTVTRSSDLERKASSPSPLTIGTPESQRKPSIILSKSQLQDTLIHLIKNDSSFLSTLHEVYLQVLTKNKDNHNL

Variants of: B1
Conditions: with PNRC2, Q9NPJ4-1

Row | Variant | effect of a mutation on the interaction
1 | MEALSRAGQEMSLAALKQHDPYITSIADLTGQVALATFCPKANQWEKTDIEGTLFVYRRSASPYHGFTIVNRLNMHNLVEPVNKDLEFQLHEPFLLYRNASLSIYSIWFYDKNDCHRIAKLMADVVEEETRRSQQAARDKQSPSQANGCSDHRPIDILEMLSRAKDEYERNQMGDSNISSPGLQPSTQLSNLGSTETLEEMPSGSQDKSAPSGHKHLTVEELFGTSLPKEQPAVVGLDSEEMERLPGDASQKEPNSFLPFPFEQLGGAPQSETLGVPSAAHHSVQPEITTPVLITPASITQSNEKHAPTYTIPLSPVLSPTLPAEAPTAQVPPSLPRNSTMMQAVKTTPRQRSPLLNQPVPELSHASLIANQSPFRAPLNVTNTAGTSLPSVDLLQKLRLTPQHDQIQTQPLGKGAMVASFSPAAGQLATPESFIEPPSKTAAARVAASASLSNMVLAPLQSMQQNQDPEVFVQPKVLSSAIPVAGAPLVTATTTAVSSVLLAPSVFQQTVTRSSDLERKASSPSPLTIGTPESQRKPSIILSKSQLQDTLIHLIKNDSSFLSTLHEVYLQVLTKNKDNHNL [Y36A] | decreasing interaction strength
2 | MEALSRAGQEMSLAALKQHDPYITSIADLTGQVALYTFCPKANQAEKTDIEGTLFVYRRSASPYHGFTIVNRLNMHNLVEPVNKDLEFQLHEPFLLYRNASLSIYSIWFYDKNDCHRIAKLMADVVEEETRRSQQAARDKQSPSQANGCSDHRPIDILEMLSRAKDEYERNQMGDSNISSPGLQPSTQLSNLGSTETLEEMPSGSQDKSAPSGHKHLTVEELFGTSLPKEQPAVVGLDSEEMERLPGDASQKEPNSFLPFPFEQLGGAPQSETLGVPSAAHHSVQPEITTPVLITPASITQSNEKHAPTYTIPLSPVLSPTLPAEAPTAQVPPSLPRNSTMMQAVKTTPRQRSPLLNQPVPELSHASLIANQSPFRAPLNVTNTAGTSLPSVDLLQKLRLTPQHDQIQTQPLGKGAMVASFSPAAGQLATPESFIEPPSKTAAARVAASASLSNMVLAPLQSMQQNQDPEVFVQPKVLSSAIPVAGAPLVTATTTAVSSVLLAPSVFQQTVTRSSDLERKASSPSPLTIGTPESQRKPSIILSKSQLQDTLIHLIKNDSSFLSTLHEVYLQVLTKNKDNHNL [W45A] | decreasing interaction strength
3 | MEALSRAGQEMSLAALKQHDPYITSIADLTGQVALYTFCPKANQWEKTDIEGTLFVYRRSASPYHGFTIVNRLNMHNLVEPVNKDLEFQLHEPALLYRNASLSIYSIWFYDKNDCHRIAKLMADVVEEETRRSQQAARDKQSPSQANGCSDHRPIDILEMLSRAKDEYERNQMGDSNISSPGLQPSTQLSNLGSTETLEEMPSGSQDKSAPSGHKHLTVEELFGTSLPKEQPAVVGLDSEEMERLPGDASQKEPNSFLPFPFEQLGGAPQSETLGVPSAAHHSVQPEITTPVLITPASITQSNEKHAPTYTIPLSPVLSPTLPAEAPTAQVPPSLPRNSTMMQAVKTTPRQRSPLLNQPVPELSHASLIANQSPFRAPLNVTNTAGTSLPSVDLLQKLRLTPQHDQIQTQPLGKGAMVASFSPAAGQLATPESFIEPPSKTAAARVAASASLSNMVLAPLQSMQQNQDPEVFVQPKVLSSAIPVAGAPLVTATTTAVSSVLLAPSVFQQTVTRSSDLERKASSPSPLTIGTPESQRKPSIILSKSQLQDTLIHLIKNDSSFLSTLHEVYLQVLTKNKDNHNL [F94A] | decreasing interaction strength

Now from value to variant:

Row | effect of a mutation on the interaction | Variant
4 | decreasing interaction strength | MEALSRAGQEMSLAALKQHDPYITSIADLTGQVALYTFCPKANQWEKTDIEGTLFVYRRSASPYHGFTIVNRLNMHNLVEPVNKDLEFQLHEPFLLYANASLSIYSIWFYDKNDCHRIAKLMADVVEEETRRSQQAARDKQSPSQANGCSDHRPIDILEMLSRAKDEYERNQMGDSNISSPGLQPSTQLSNLGSTETLEEMPSGSQDKSAPSGHKHLTVEELFGTSLPKEQPAVVGLDSEEMERLPGDASQKEPNSFLPFPFEQLGGAPQSETLGVPSAAHHSVQPEITTPVLITPASITQSNEKHAPTYTIPLSPVLSPTLPAEAPTAQVPPSLPRNSTMMQAVKTTPRQRSPLLNQPVPELSHASLIANQSPFRAPLNVTNTAGTSLPSVDLLQKLRLTPQHDQIQTQPLGKGAMVASFSPAAGQLATPESFIEPPSKTAAARVAASASLSNMVLAPLQSMQQNQDPEVFVQPKVLSSAIPVAGAPLVTATTTAVSSVLLAPSVFQQTVTRSSDLERKASSPSPLTIGTPESQRKPSIILSKSQLQDTLIHLIKNDSSFLSTLHEVYLQVLTKNKDNHNL [R98A]
5 | disrupting interaction strength | MEALSRAGQEMSLAALKQHDPYITSIADLTGQVALYTFCPKANQWEKTDIEGTLFVYRRSASPYHGFTIVNRLNMHNLVEPVNKDLEFQLHEPFLAYRNASLSIYSIWFYDKNDCHRIAKLMADVVEEETRRSQQAARDKQSPSQANGCSDHRPIDILEMLSRAKDEYERNQMGDSNISSPGLQPSTQLSNLGSTETLEEMPSGSQDKSAPSGHKHLTVEELFGTSLPKEQPAVVGLDSEEMERLPGDASQKEPNSFLPFPFEQLGGAPQSETLGVPSAAHHSVQPEITTPVLITPASITQSNEKHAPTYTIPLSPVLSPTLPAEAPTAQVPPSLPRNSTMMQAVKTTPRQRSPLLNQPVPELSHASLIANQSPFRAPLNVTNTAGTSLPSVDLLQKLRLTPQHDQIQTQPLGKGAMVASFSPAAGQLATPESFIEPPSKTAAARVAASASLSNMVLAPLQSMQQNQDPEVFVQPKVLSSAIPVAGAPLVTATTTAVSSVLLAPSVFQQTVTRSSDLERKASSPSPLTIGTPESQRKPSIILSKSQLQDTLIHLIKNDSSFLSTLHEVYLQVLTKNKDNHNL [L96A]
